Data from PMC10397247.
Blank lines part the entries; values can stand above or below the binder they belong to.

Columns and labels:
O12 = biological target: T1, O12; test: two-hybrid library CC0; settings: mean of both orientations;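 note: natural log of median RNA to DNA barcode read ratio; higher means stronger binding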
T1 chain: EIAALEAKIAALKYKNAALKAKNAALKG

O13 = biological target: T2, O13; test: two-hybrid library CC0; settings: mean of both orientations;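 note: natural log of median RNA to DNA barcode read ratio; higher means stronger binding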
T2 chain: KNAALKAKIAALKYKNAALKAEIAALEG

O14 = biological target: T3, O14; test: two-hybrid library CC0; settings: mean of both orientations;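 note: natural log of median RNA to DNA barcode read ratio; higher means stronger binding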
T3 chain: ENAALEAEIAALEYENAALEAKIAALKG

O15 = biological target: T4, O15; test: two-hybrid library CC0; settings: mean of both orientations;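 note: natural log of median RNA to DNA barcode read ratio; higher means stronger binding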
T4 chain: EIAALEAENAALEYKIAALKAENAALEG

O16 = biological target: T5, O16; test: two-hybrid library CC0; settings: mean of both orientations;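 note: natural log of median RNA to DNA barcode read ratio; higher means stronger binding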
T5 chain: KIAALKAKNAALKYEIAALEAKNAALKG

O2 = biological target: T6, O2; test: two-hybrid library CC0; settings: mean of both orientations;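 note: natural log of median RNA to DNA barcode read ratio; higher means stronger binding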
T6 chain: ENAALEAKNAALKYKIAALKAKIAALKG

O3 = biological target: T7, O3; test: two-hybrid library CC0; settings: mean of both orientations
T7 chain: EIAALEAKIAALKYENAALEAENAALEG

O4 = biological target: T8, O4; test: two-hybrid library CC0; settings: mean of both orientations
T8 chain: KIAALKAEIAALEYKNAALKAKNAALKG

O5 = biological target: T9, O5; test: two-hybrid library CC0; settings: mean of both orientations
T9 chain: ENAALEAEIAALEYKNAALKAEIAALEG

O6 = biological target: T10, O6; test: two-hybrid library CC0; settings: mean of both orientations
T10 chain: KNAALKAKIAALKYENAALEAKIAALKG

O7 = biological target: T11, O7; test: two-hybrid library CC0; settings: mean of both orientations
T11 chain: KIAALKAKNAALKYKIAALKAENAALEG

O8 = biological target: T12, O8; test: two-hybrid library CC0; settings: mean of both orientations
T12 chain: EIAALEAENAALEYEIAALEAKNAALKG

O9 = biological target: T13, O9; test: two-hybrid library CC0; settings: mean of both orientations
T13 chain: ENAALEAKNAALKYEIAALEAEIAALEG

P3mS = biological target: T14, P3mS; test: two-hybrid library CCNG1
T14 chain: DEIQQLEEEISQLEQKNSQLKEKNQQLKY

P5mS = biological target: T15, P5mS; test: two-hybrid library CCNG1
T15 chain: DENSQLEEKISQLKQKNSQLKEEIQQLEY

P6mS = biological target: T16, P6mS; test: two-hybrid library CCNG1
T16 chain: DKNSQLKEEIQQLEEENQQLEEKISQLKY

P7mS = biological target: T17, P7mS; test: two-hybrid library CCNG1
T17 chain: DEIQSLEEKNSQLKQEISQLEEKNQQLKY

P8mS = biological target: T18, P8mS; test: two-hybrid library CCNG1
T18 chain: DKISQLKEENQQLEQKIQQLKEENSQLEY

P9mS = biological target: T19, P9mS; test: two-hybrid library CCNG1
T19 chain: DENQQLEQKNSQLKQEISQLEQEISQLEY

4H2931-bA = biological target: T20, 4H2931-bA; test: two-hybrid library CCNG1
T20 chain: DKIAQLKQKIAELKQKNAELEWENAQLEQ

4H3041-bA = biological target: T21, 4H3041-bA; test: two-hybrid library CCNG1
T21 chain: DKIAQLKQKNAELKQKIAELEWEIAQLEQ

4H3297-bA = biological target: T22, 4H3297-bA; test: two-hybrid library CCNG1
T22 chain: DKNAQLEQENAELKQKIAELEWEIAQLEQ

4H3364-bA = biological target: T23, 4H3364-bA; test: two-hybrid library CCNG1
T23 chain: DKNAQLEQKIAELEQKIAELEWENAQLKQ

4H3381-bA = biological target: T24, 4H3381-bA; test: two-hybrid library CCNG1
T24 chain: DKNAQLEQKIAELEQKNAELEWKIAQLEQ

4H3381-bH = biological target: T25, 4H3381-bH; test: two-hybrid library CCNG1
T25 chain: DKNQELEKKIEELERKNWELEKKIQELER

4H349-bA = biological target: T26, 4H349-bA; test: two-hybrid library CCNG1
T26 chain: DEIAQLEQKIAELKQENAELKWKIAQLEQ

4H3497-bA = biological target: T27, 4H3497-bA; test: two-hybrid library CCNG1
T27 chain: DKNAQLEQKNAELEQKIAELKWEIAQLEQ

4H56-bA = biological target: T28, 4H56-bA; test: two-hybrid library CCNG1
T28 chain: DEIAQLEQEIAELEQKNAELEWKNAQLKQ

4H730-bA = biological target: T29, 4H730-bA; test: two-hybrid library CCNG1
T29 chain: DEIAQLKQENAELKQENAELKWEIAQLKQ

4H796-bA = biological target: T30, 4H796-bA; test: two-hybrid library CCNG1
T30 chain: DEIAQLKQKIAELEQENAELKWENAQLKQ

4H932-bA = biological target: T31, 4H932-bA; test: two-hybrid library CCNG1
T31 chain: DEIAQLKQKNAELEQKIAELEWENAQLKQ

4H949-bA = biological target: T32, 4H949-bA; test: two-hybrid library CCNG1
T32 chain: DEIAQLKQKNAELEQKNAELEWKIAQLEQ

P11A = biological target: T33, P11A; test: two-hybrid library CCNG1
T33 chain: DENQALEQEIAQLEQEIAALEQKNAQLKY

B1: O12 (peptide)
chain: EIAALEAKIAALKYKNAALKAKNAALKG
- interaction score (O12): -2.79
- interaction score (O13): -2.79
- interaction score (O14): -2.03
- interaction score (O15): -2.78
- interaction score (O16): -2.78
- interaction score (O2): -2.79
- interaction score (O3): 0.0458
- interaction score (O4): -2.22
- interaction score (O5): -2.71
- interaction score (O6): -2.7
- interaction score (O7): -2.84
- interaction score (O8): -2.29
- interaction score (O9): -2.71

- interaction score (P3mS): -1.02
- interaction score (P5mS): -0.969
- interaction score (P6mS): -0.88
- interaction score (P7mS): -1.59
- interaction score (P8mS): -1.66
- interaction score (P9mS): -0.496
B2: P3mS (peptide)
chain: DEIQQLEEEISQLEQKNSQLKEKNQQLKY

- interaction score (4H2931-bA): -0.604
- interaction score (4H3041-bA): -0.32
- interaction score (4H3297-bA): -0.644
- interaction score (4H3364-bA): -1.11
- interaction score (4H3381-bA): -1.36
- interaction score (4H3381-bH): -0.208
- interaction score (4H349-bA): -1.08
- interaction score (4H3497-bA): -1.04
- interaction score (4H56-bA): 0.684
- interaction score (4H730-bA): -1.14
- interaction score (4H796-bA): -0.693
- interaction score (4H932-bA): -1.36
- interaction score (4H949-bA): -1.37
- interaction score (P11A): 1.31
B3: 4H2931-bA (peptide)
chain: DKIAQLKQKIAELKQKNAELEWENAQLEQ
